In paper PMC3222294:

Target: T1, RIG-I (ΔCARDs) (human, UniProt O95786 230-925, del1-229)
T1 sequence: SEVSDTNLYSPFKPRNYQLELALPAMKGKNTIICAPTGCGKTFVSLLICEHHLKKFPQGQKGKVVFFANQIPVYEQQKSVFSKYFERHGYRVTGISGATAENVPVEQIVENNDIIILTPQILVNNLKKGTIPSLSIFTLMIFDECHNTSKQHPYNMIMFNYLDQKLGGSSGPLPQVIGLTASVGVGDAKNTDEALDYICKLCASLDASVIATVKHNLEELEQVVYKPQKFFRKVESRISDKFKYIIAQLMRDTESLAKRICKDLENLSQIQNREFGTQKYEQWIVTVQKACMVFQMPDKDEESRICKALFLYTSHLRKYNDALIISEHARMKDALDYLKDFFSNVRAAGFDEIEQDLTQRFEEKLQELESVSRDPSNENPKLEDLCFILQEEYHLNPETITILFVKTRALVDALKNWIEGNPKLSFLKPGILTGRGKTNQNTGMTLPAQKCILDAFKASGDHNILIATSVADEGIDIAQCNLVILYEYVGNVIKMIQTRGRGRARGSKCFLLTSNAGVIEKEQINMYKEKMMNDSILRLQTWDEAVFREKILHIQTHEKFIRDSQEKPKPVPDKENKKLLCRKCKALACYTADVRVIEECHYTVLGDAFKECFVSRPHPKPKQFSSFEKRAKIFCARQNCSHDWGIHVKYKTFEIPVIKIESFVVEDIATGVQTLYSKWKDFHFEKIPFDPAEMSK
Assay: X-ray crystallography

B1: dsRNA10 (5'OH palindromic 10-mer duplex) (dsRNA)
RNA 1: GCGCGCGCGC
RNA 2: GCGCGCGCGC
binding result: binds
